Results taken from US20210179715A1.
Numbering of substitutions follows the chain as printed. “And” between values parts separate entries of the source, which are not always exact repeats. Identical values can stand only once. Like-named read-outs stand apart in the source and are kept apart here. Each block holds one binder with its values, some of them ahead of it.

What was measured:
[1] = target: T1, 27mer cyno CD3 polypeptide conjugated to biotin (cynomolgus monkey); assay: BIAcore T200 SPR; biotin 27mer CD3 peptide on SA chip; TDB flowed; 37 C
T1 sequence (peptide, conjugated to biotin (site not stated)): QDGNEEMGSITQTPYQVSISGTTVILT

[2] = target: T1, 27mer cyno CD3 polypeptide conjugated to biotin (cynomolgus monkey); assay: as above; remark: listed apart in the source
[3] = target: cynomolgus LY6G6D-Fc (cynomolgus monkey); assay: BIAcore SPR; LY6G6D-Fc on chip; TDB flowed; 37 C
[4] = target: cynomolgus LY6G6D-Fc (cynomolgus monkey); assay: BIAcore SPR; LY6G6D-Fc on chip; TDB flowed; 37 C; remark: listed apart in the source
[5] = target: cynomolgus LY6G6D-Fc (cynomolgus monkey); assay: BIAcore SPR; two-cell TDB
[6] = target: T2, human LY6G6D-Fc (human) (UniProt O95868); assay: BIAcore SPR; LY6G6D-Fc on chip; TDB flowed; 37 C
T2 sequence: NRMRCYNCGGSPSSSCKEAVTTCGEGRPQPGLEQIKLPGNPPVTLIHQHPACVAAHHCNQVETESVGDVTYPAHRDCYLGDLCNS

[7] = target: T2, human LY6G6D-Fc (human); assay: BIAcore SPR; LY6G6D-Fc on chip; TDB flowed; 37 C; remark: listed apart in the source

B1: LY6G6D TDB assembled using a one-cell system comprising the anti-LY6G6D 20A12.QNTv12 arm (one-cell) and the anti-CD3 38E4v1 (WT) arm (bispecific antibody, V domains shown)
VH 1: EVQLLESGGGLVQPGGSLRLSCAASGFDFVNNAMIWVREAPGKGLEWVSALSFADNTAYYATWASGRFTISRDSSKTTVYLQMNSLRAEDTAVYYCMRGDLWGPGTLVTVSS
VL 1: DIQMTQSPSTLSASVGDRVTITCQASESITRYLNWYQKKPGKAPKLLIYDASKLPSGVPSRFSGSGSGTEFTLTISSLQPDDFATYYCQSTSFRGRSYQNTFGGGTKVEIK
VH 2: EVQLVQSGAEVKKPGASVKVSCKASGFTFTSYYIHWVRKAPGQGLEWIGWIYPENDNTKYNEKFKDRVTITADTSTSTAYLELSSLRSEDTAVYYCARDGYSRYYFDYWGQGTLVTVSS
VL 2: DIVMTQSPDSLAVSLGERATINCKSSQSLLNSRTRKNYLAWYQEKPGQSPKLLIYWTSTRKSGVPDRFSGSGSGTDFTLTISSLQAEDVAVYYCKQSFILRTFGQGTKVEIK
Kd [1]: 15.4 nM and 16.5 nM
koff [1]: 0.0399 s⁻¹ and 0.0437 s⁻¹
kon [1]: 2.6e+06 M⁻¹ s⁻¹ and 2.65e+06 M⁻¹ s⁻¹
Kd [2]: 15.9 nM

B2: LY6G6D TDB comprising the anti-LY6G6D 1G4 arm and the anti-CD3 38E4.v1 arm (bispecific antibody, V domains shown)
VH 1: EVQLVQSGAEVKKPGASVKVSCKASGYTFTTYVMHWVRQAPGQGLEWMGYINPYNDGTKYNEKFKGRVTMTRDTSISTAYMELSRLRSDDTAVYYCGRRNFDYWGQGTLVTVSS
VL 1: DIVMTQSPDSLAVSLGERATINCKSSQSLLLSGNQENYLAWHQQKPGQPPKTLITWASTRISGVPDRFSGSGSGTDFTLTISSLQAEDVAVYYCQQSYSAPYTFGGGTKVEIK
VH 2: B1 VH 2 with K39Q
VL 2: B1 VL 2 with E44Q
Kd [3]: 13.1 nM
koff [3]: 0.00936 s⁻¹
kon [3]: 714000 M⁻¹ s⁻¹

B5: LY6G6D TDB assembled using a one-cell system comprising the anti-LY6G6D 20A12.QNTv12 arm (one-cell) and the anti-CD3 38E4v1 MD4 arm (bispecific antibody, V domains shown)
VH 1: B1 VH 1
VL 1: B1 VL 1
VH 2: B1 VH 2
VL 2: B1 VL 2 with S49P, T57A
Kd [1]: 14 nM and 14.7 nM
koff [1]: 0.0433 s⁻¹ and 0.0426 s⁻¹
kon [1]: 3.09e+06 M⁻¹ s⁻¹ and 2.89e+06 M⁻¹ s⁻¹
Kd [2]: 14.4 nM
Kd [4]: 2.62 nM
koff [4]: 0.000574 s⁻¹
kon [4]: 219000 M⁻¹ s⁻¹

B6: LY6G6D TDB assembled using a one-cell system comprising the anti-LY6G6D 20A12.QNTv12 arm (one-cell) and the anti-CD3 38E4v1 MD1 arm (bispecific antibody, V domains shown)
VH 1: B1 VH 1
VL 1: B1 VL 1
VH 2: B1 VH 2
VL 2: B1 VL 2 with S49P, T57A, K61E, K95T
Kd [1]: 26.6 nM and 25.6 nM
koff [1]: 0.0383 s⁻¹ and 0.0376 s⁻¹
kon [1]: 1.44e+06 M⁻¹ s⁻¹ and 1.47e+06 M⁻¹ s⁻¹
Kd [2]: 26.1 nM
Kd [4]: 3.63 nM
koff [4]: 0.000512 s⁻¹
kon [4]: 141000 M⁻¹ s⁻¹

Now from value to binder:

Kd [1]: 13 nM and 16.5 nM
koff [1]: 0.0337 s⁻¹ and 0.0364 s⁻¹
kon [1]: 2.6e+06 M⁻¹ s⁻¹ and 2.21e+06 M⁻¹ s⁻¹
Kd [2]: 14.8 nM
Kd [4]: 1.92 nM
koff [4]: 0.000444 s⁻¹
kon [4]: 231000 M⁻¹ s⁻¹
Kd [3]: 2.29 nM
koff [3]: 0.00038 s⁻¹
kon [3]: 166000 M⁻¹ s⁻¹
Kd [5]: 2.29 nM
B3: LY6G6D TDB comprising the anti-LY6G6D 20A12.QNTv12 arm (two-cell) and the anti-CD3 38E4v1 arm (bispecific antibody, V domains shown)
VH 1: B1 VH 1 with E39Q
VL 1: B1 VL 1 with K38Q
VH 2: B1 VH 2 with K39Q
VL 2: B1 VL 2 with E44Q

Kd [6]: 5.62 nM
koff [6]: 0.000453 s⁻¹
kon [6]: 80600 M⁻¹ s⁻¹
koff [7]: 0.000456 s⁻¹
Kd [3]: 4.91 nM
koff [3]: 0.000413 s⁻¹
kon [3]: 84300 M⁻¹ s⁻¹
B4: LY6G6D TDB comprising the anti-LY6G6D 20A12.QNTv12 arm (two-cell) and the anti-CD3 40G5c arm (bispecific antibody, part only; not given: anti-CD3 arm and constant regions, V domains shown, part only)
VH: B1 VH 1 with E39Q
VL: B1 VL 1 with K38Q
